Measured values from paper PMC5021521, “Coordinated recruitment of Spir actin nucleators and myosin V motors to Rab11 vesicle membranes” (eLife, 2016).
One block for each molecule: values may come before it. Ends that are not written are not given here. * marks the point of attachment. 5FAM = O=C1OC2(c3ccc(O)cc3Oc3cc(O)ccc32)c2ccc(C(=O)*)cc21; Ahx = NCCCCCC(=O)O

How the values were obtained:
[1] = molecular target: T1, MyoVc-GTD (human, aa 1350-1742) (human, UniProt Q9NQX4 1350-1742); assay: MST
T1 chain: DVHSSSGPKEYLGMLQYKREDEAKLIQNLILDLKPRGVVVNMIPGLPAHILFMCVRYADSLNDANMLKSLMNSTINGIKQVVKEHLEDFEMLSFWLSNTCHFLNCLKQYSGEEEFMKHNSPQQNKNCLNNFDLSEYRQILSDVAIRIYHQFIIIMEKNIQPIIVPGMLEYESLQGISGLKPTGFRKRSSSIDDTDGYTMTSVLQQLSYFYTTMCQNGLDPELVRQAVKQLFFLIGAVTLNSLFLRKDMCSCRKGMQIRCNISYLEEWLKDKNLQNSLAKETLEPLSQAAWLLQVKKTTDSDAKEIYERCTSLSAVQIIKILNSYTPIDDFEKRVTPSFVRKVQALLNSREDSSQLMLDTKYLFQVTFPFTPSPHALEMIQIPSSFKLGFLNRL

[2] = molecular target: T2, MyoVc-GTD (human, aa 1350-1742) (human, UniProt Q9NQX4 1350-1742); assay: MST; 500 nM fluorescein-Spir-2 peptide, MyoVc-GTD 97 uM to 2.96 nM; 21.5°C; 50 mM Tris pH 8.0, 250 mM NaCl, 2 mM MgCl2, 2 mM TCEP, 5% glycerol; conditions: both partners purified
T2 construct: myosin Vc globular tail domain, human, residues 1350-1742; also called hs-MyoVc-GTD; source: E. coli BL21(DE3) or BL21-CodonPlus-RILP, purified (HisTrap, rTEV, Superdex 200); not shown: His6, N-terminal, cleaved
T2 sequence (looked up): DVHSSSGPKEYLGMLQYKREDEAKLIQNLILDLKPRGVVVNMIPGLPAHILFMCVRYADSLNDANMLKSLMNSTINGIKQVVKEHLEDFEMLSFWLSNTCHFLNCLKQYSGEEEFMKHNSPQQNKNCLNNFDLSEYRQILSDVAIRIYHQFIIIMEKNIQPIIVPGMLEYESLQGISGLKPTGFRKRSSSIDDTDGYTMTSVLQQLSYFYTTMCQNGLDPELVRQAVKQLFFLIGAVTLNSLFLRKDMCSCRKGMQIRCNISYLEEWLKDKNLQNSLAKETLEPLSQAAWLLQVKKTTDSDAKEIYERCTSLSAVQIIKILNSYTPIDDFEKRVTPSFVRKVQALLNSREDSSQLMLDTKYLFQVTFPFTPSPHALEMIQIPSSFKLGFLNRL

[3] = molecular target: T3, MyoVb-GTD (human, aa 1456-1848) (human, UniProt Q9ULV0 1456-1848); assay: fluorescence polarisation; fluorescence anisotropy; 1 uM fluorescein-Spir-2-401-427 titrated with MyoVa-GTD or MyoVb-GTD (50 nM-5 uM); 25°C; 100 mM Tris-HCl pH 8.0, 150 mM NaCl, 2 mM MgCl2, 2 mM TCEP, 5% glycerol; conditions: both partners purified
T3 construct: myosin Vb globular tail domain, human, residues 1456-1848; Produced as in Pylypenko et al., 2013; also called hs-MyoVb-GTD; source: E. coli BL21(DE3) or BL21-CodonPlus-RILP, purified (HisTrap, rTEV, Superdex G200); not shown: His6, N-terminal, cleaved
T3 sequence (looked up): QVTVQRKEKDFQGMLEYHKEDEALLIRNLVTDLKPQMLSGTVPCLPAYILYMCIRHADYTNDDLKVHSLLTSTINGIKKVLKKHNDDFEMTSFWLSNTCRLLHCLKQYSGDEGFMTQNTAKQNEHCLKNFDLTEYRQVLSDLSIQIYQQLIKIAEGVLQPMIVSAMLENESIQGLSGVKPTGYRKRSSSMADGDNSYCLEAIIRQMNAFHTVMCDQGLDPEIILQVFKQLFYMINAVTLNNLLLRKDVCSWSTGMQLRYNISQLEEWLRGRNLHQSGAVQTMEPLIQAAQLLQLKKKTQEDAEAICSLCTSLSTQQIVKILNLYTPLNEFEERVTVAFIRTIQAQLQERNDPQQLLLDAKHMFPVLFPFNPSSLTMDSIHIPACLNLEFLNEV

[4] = test system: Spir-1; assay: GST-pulldown from mouse brain lysates; format: binding; conditions: 50 µg GST-fusion protein; immunoblot anti-Spir-1; N = 3
Procedure: Wild-type C57BL/6 (Jackson Laboratory, Bar Harbor, ME, USA) mice were killed by cervical dislocation. The brain was isolated immediately, washed in cold PBS and lysed in lysis buffer (25 mM Tris-HCl pH 7.4, 150 mM NaCl, 5 mM MgCl2, 10% (v/v) glycerol, 0.1% (v/v) Nonidet P-40, 0.1 M NaF, 1 mM Na3VO4, 1 mM PMSF, protease inhibitor cocktail) using a TissueRuptor (Qiagen). Following incubation on ice for 45 min, the lysate was centrifuged at 20,000 x g, 4°C until the supernatant was clear. Brain lysates were incubated with GSH-Sepharose 4B beads, loaded with 50 µg GST-fusion proteins as indicated, for 2.5 hr at 4°C on a rotating wheel. Beads were washed five times with pulldown buffer and bound proteins were eluted by 1x Laemmli buffer and denatured at 95°C for 10 min. Pulled proteins were analyzed by immunoblotting.

[5] = molecular target: GST-MyoVa-GTD (mouse); assay: pull-down + other fluorescence titration; quantitative GST-pulldown: increasing GST-MyoVa/b-GTD on beads, 100 nM His6-mCherry-Spir-2-linker, 1x PBS with 50 mM NaCl; mCherry fluorescence left in the supernatant at 20°C; single-site fit
[6] = molecular target: T4, GST-MyoVb-GTD (human, UniProt Q9ULV0 1467-1848); assay: as above; conditions: both partners purified
T4 construct: myosin Vb globular tail domain, human, aa 1467-1848; also called GST-hs-MyoVb-GTD; pGex-4T1-NTEV-hs-MyoVb-GTD; source: E. coli Rosetta or Rosetta (DE3) pLysS, purified (GSH-Sepharose 4B, Superdex 200)
T4 sequence (looked up): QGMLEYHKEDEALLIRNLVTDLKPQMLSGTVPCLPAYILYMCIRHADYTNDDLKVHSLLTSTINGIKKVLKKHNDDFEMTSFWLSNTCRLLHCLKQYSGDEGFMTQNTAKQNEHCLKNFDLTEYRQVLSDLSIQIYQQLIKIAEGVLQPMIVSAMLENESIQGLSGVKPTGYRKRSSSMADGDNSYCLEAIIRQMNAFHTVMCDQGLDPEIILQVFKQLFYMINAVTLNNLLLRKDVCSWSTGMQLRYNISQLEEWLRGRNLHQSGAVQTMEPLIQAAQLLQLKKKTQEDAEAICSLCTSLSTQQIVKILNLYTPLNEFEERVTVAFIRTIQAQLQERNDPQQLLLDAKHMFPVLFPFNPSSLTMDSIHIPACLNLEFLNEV

Kd [1]: 2880 nM
binding result [2]: binds
binding result [3]: binds
B1: Fluorescein-Spir-2-GTBM peptide (peptide)
peptide: {5FAM-Ahx}-QRPRPRVLLKAPTLAEMEEMNTSEEEE
notes: also called Fluorescein-Spir2 peptide; fluorescein labeled Spir-2-401-427 peptide; source: synthetic peptide, bought: GenScript

B2: GST-MyoVb-GTD: GST-hs-MyoVb-GTD aa 1467 - 1848 (protein)
chain: QGMLEYHKEDEALLIRNLVTDLKPQMLSGTVPCLPAYILYMCIRHADYTNDDLKVHSLLTSTINGIKKVLKKHNDDFEMTSFWLSNTCRLLHCLKQYSGDEGFMTQNTAKQNEHCLKNFDLTEYRQVLSDLSIQIYQQLIKIAEGVLQPMIVSAMLENESIQGLSGVKPTGYRKRSSSMADGDNSYCLEAIIRQMNAFHTVMCDQGLDPEIILQVFKQLFYMINAVTLNNLLLRKDVCSWSTGMQLRYNISQLEEWLRGRNLHQSGAVQTMEPLIQAAQLLQLKKKTQEDAEAICSLCTSLSTQQIVKILNLYTPLNEFEERVTVAFIRTIQAQLQERNDPQQLLLDAKHMFPVLFPFNPSSLTMDSIHIPACLNLEFLNEV
modifications: left off: GST, end not stated, kept
pulldown of endogenous Spir-1 in words [4]: able to pull endogenous Spir-1 from mouse brain lysates

Kd [5]: 728 nM
Kd [6]: ~377 nM
B3: His6-mCherry-Spir-2-linker (domain or fragment, human, UniProt Q8WWL2 361-519, looked up)
chain: GEGWAARGFGSLPCILNACSGDAKSTSCINLSVTDAGGSAQRPRPRVLLKAPTLAEMEEMNTSEEEESPCGEVTLKRDRSFSEHDLAQLRSEVASGLQSATHPPGGTEPPRPRAGSAHVWRPGSRDQGTCPASVSDPSHPLLSNRGSSGDRPEASMTPD
notes: Spir-2 central linker region, human, aa 361-519; also called His-mCherry-Spir2-linker; His6-mCherry-hs-Spir2-linker; source: E. coli (Rosetta or Rosetta (DE3) pLysS; BL21(DE3)), purified (Ni-NTA, Superdex 200); not shown: His6, N-terminal, kept; mCherry, N-terminal, kept
